Data published in the Human Domainome abundance scans (Beltran et al. 2025).
± gives the uncertainty stated by the source.

B1: Chromodomain-helicase-DNA-binding protein 3, residues 374 to 426; numbered along this chain, Q12873 (parent)
chain: YETDHQDYCEVCQQGGEIILCDTCPRAYHLVCLDPELDRAPEGKWSCPHCEKE

Variants of: B1
Test: abundance fitness (aPCA) (normalised: wild type 0, dead -1); higher = more abundant; growth selection in yeast, the domain comes from the species named
Details: Homo sapiens

| Variant | abundance fitness |
| --- | --- |
| C47Y | -0.972 ± 0.23 |
| P48A | -0.002 ± 0.11 |
| P48C | -0.203 ± 0.15 |
| P48D | -0.416 ± 0.18 |
| P48E | -0.074 ± 0.14 |
| P48F | -0.528 ± 0.24 |
| P48G | -0.031 ± 0.097 |
| P48H | -0.599 ± 0.28 |
| P48K | -0.109 ± 0.13 |
| P48M | -0.07 ± 0.12 |
| P48N | -0.014 ± 0.18 |
| P48Q | -0.078 ± 0.2 |
| P48S | -0.217 ± 0.11 |
| P48T | -0.24 ± 0.16 |
| P48V | -0.139 ± 0.11 |
| P48W | -0.358 ± 0.14 |
| H49A | -0.183 ± 0.16 |
| H49C | -0.456 ± 0.22 |
| H49D | -0.185 ± 0.15 |
| H49E | -0.062 ± 0.17 |
| H49F | -0.244 ± 0.33 |
| H49G | -0.033 ± 0.093 |
| H49I | 0.221 ± 0.39 |
| H49K | -0.127 ± 0.2 |
| H49L | -0.128 ± 0.11 |
| H49M | -0.797 ± 0.45 |
| H49N | 0.217 ± 0.29 |

| Variant | abundance fitness |
| --- | --- |
| H49P | -0.334 ± 0.24 |
| H49Q | -0.034 ± 0.27 |
| H49R | -0.143 ± 0.1 |
| H49T | -0.011 ± 0.23 |
| H49V | 0.126 ± 0.12 |
| H49W | -0.234 ± 0.14 |
| H49Y | -0.32 ± 0.23 |
| C50A | -0.417 ± 0.13 |
| C50D | -0.176 ± 0.26 |
| C50E | -0.547 ± 0.16 |
| C50F | -0.682 ± 0.31 |
| C50G | -0.383 ± 0.12 |
| C50H | -0.291 ± 0.33 |
| C50I | -0.564 ± 0.28 |
| C50K | -0.923 ± 0.23 |
| C50L | -0.468 ± 0.11 |
| C50N | -0.664 ± 0.38 |
| C50P | -0.424 ± 0.16 |
| C50Q | -0.57 ± 0.22 |
| C50S | -0.66 ± 0.14 |
| C50V | -0.598 ± 0.12 |
| C50W | -0.565 ± 0.13 |
| C50Y | -0.791 ± 0.15 |
| E51A | -0.215 ± 0.095 |
| E51C | -0.137 ± 0.17 |
| E51D | -0.37 ± 0.21 |
| E51F | -0.205 ± 0.23 |

| Variant | abundance fitness |
| --- | --- |
| E51I | -0.438 ± 0.26 |
| E51L | -0.039 ± 0.1 |
| E51M | -0.396 ± 0.16 |
| E51P | -0.194 ± 0.15 |
| E51Q | -0.533 ± 0.2 |
| E51R | -0.215 ± 0.12 |
| E51S | -0.158 ± 0.14 |
| E51T | -0.156 ± 0.14 |
| E51W | -0.501 ± 0.18 |
| E51Y | -0.554 ± 0.37 |
| K52A | -0.264 ± 0.14 |
| K52D | -0.413 ± 0.24 |
| K52E | -0.308 ± 0.22 |
| K52G | -0.137 ± 0.1 |
| K52H | -0.38 ± 0.28 |
| K52L | -0.308 ± 0.12 |
| K52M | -0.156 ± 0.23 |
| K52N | -0.024 ± 0.18 |
| K52P | 0.104 ± 0.18 |
| K52R | 0.013 ± 0.11 |
| K52S | 0.049 ± 0.12 |
| K52T | 0.01 ± 0.2 |
| K52V | -0.357 ± 0.14 |
| K52W | -0.487 ± 0.17 |
| E53C | -0.584 ± 0.47 |
